From article PMC4787834

What was measured:
MsmUdgX [1] = biological target: T1, MsmUdgX (Mycobacterium smegmatis mc2 155, UniProt A0QP43 1-209); assay: 8 M urea-PAGE complex shift
T1 sequence: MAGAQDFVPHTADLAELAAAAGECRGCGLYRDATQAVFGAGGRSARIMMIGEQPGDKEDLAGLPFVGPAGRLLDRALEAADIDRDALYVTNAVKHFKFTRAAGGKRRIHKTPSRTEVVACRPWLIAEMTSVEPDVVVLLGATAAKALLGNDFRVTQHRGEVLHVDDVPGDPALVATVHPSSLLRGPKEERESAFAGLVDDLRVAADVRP

MsmUdgX F4 = biological target: T2, MsmUdgX F4 (Mycobacterium smegmatis mc2 155, UniProt A0QP43 1-209, Q53A); assay: 8 M urea-PAGE complex shift
T2 sequence: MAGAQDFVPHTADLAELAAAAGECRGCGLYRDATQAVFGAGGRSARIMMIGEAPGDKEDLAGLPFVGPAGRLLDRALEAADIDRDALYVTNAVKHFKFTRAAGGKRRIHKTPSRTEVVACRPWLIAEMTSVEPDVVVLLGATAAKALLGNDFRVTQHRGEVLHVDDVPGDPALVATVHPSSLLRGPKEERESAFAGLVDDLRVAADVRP

MsmUdgX [2] = biological target: T1, MsmUdgX; assay: SDS-PAGE complex shift

B1: SSU9:G (dsDNA)
DNA 1: CTCAAGTGUAGGCATGCAAGAGCT
DNA 2: CTTGCATGCCTGCACTTGAGTGCA
modifications: deoxyuridine at position 9 opposite G
Q: Does B1 bind (MsmUdgX [1])?
A: Result: binds

Q: What does the source list for CTCAAGTGUAGGCATGCAAGAGCT (ssDNA, deoxyuridine at position 9) [SSU9]?
A: binding result (MsmUdgX [1]): binds; binding result (MsmUdgX F4): binds

Q: Does TUTT (ssDNA, deoxyuridine at position 2; 5' phosphate) [pTUTT] bind (MsmUdgX [2])?
A: Result: binds
